The target in this series is T1, Rad50-K60A (Saccharomyces cerevisiae, UniProt P12753 1-1312, K60A).
T1 sequence: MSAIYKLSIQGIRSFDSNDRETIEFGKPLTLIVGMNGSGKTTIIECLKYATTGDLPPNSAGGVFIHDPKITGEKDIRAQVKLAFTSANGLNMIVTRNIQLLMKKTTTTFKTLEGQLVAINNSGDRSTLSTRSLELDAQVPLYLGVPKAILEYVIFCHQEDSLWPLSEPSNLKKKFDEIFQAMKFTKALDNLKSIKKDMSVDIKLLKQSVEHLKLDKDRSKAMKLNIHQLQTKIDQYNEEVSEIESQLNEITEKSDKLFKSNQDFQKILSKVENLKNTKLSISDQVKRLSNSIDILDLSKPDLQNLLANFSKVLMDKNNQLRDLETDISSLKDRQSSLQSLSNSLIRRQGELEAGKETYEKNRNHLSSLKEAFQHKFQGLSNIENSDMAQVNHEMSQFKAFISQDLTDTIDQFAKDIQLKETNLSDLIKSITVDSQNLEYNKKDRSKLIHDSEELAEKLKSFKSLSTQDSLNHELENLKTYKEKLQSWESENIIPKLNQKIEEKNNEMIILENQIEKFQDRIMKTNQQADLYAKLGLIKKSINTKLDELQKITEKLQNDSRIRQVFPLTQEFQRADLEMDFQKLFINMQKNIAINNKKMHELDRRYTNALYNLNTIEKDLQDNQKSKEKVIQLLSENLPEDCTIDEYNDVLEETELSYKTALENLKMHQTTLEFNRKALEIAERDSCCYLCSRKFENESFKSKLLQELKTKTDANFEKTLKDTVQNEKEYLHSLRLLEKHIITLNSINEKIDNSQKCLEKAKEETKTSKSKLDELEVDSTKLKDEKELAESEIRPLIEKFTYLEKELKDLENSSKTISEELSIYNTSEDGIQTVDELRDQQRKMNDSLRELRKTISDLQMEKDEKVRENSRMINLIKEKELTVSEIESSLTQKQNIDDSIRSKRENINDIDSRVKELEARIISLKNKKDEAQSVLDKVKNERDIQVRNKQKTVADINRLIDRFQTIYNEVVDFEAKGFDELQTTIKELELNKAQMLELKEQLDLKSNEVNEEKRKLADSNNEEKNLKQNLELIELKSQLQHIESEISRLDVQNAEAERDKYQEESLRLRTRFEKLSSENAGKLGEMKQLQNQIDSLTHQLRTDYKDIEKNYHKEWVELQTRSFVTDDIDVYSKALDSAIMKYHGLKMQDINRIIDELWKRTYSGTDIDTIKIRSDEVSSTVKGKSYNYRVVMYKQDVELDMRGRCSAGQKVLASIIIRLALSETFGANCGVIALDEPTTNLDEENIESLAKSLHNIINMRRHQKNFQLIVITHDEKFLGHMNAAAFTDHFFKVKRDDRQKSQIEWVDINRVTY
Description: EMSA.

B1: 83-mer dsDNA (EMSA) (dsDNA)
DNA 1: TTGATAAGAGGTCATTTTTGCGGATGGCTTAGAGCTTAATTGCTGAATCTGGTGCTGTAGCTCAACATGTTTTAAATATGCAA
DNA 2: TTGCATATTTAAAACATGTTGAGCTACAGCACCAGATTCAGCAATTAAGCTCTAAGCCATCCGCAAAAATGACCTCTTATCAA
With B1, the binding result is given as “binds”.

(Values after article PMC12343972 (Nature Communications, 2025).)
